Target: the molecule itself
Assay: crystal structure

B1: Nmar_1354, multicopper oxidase (MCO4 lineage) from Nitrosopumilus maritimus (enzyme)
chain: DSSDTFPKFKNPNPQTLSYTLIAQDAEIEVSPGVRAKVWTYNGTVPAPTLRFSEGDDVTVKFVNDTPYAHTIHFHGTHDSANDGVFPMIMPGEEYTYHFVAEEAGLFMYHCHAFPTSEHVRMGMFGTMIIDPAIRPMDPAREYFFTLSEFDPNNALEHFTEFYPINGYAGQYMDNPIRVVSGELTRFYVVGIGGVLQSPFHVHSTIMKVYPSGILWNEPYYAQTHLIGNGDTAIIEATWTQPGMYLFHVHGIQEERGSMAMIEVLEDASSLSDVQRPSNNKGSYSMVEWQEDLIRTLEQPQLISYENLGESAAISSEKVSADKVSIVKDSWNPEITESYDPIAIQVDSGTTVTWTNDDSVVHTVTDNENSFDSGFIQAGNTWSYSFDNPGEFDYICTLHPWMKGTISVN
Q: Which “stoichiometry N” value does the source give for B1 here?
A: 3
